The record followed here is PMC9418484 (The Journal of Experimental Medicine, 2022).

The target in assay [1] is T1, SARS-CoV-2 Wuhan-Hu-1 receptor-binding domain (RBD), S protein residues 319-539 (SARS-CoV-2 Wuhan-Hu-1, UniProt P0DTC2).
The target of assay [2] is T1, SARS-CoV-2 Wuhan-Hu-1 receptor-binding …. Description: BLI. The following applies: both partners purified.

Read-outs that look alike come from different tables or passages of the source.

B1: AZ229 (antibody, V domains shown)
VH: EVQLVESGGGLVQPGGSLRLSCAASGFTFSSDDMHWVRQATGKGLEWVSAIGTSGDTYYSESVKGRFTISRDNAKSSLYLQMNSLRAGDTAVYYCARGRVYDGPTSDRHYYYYVMDLWGHGTTVAVSS
VL: DIQMTQSPSSLSASVGDRVTITCRASQSINKYLNWYQQKPGKAPKLLIYAASSLQGGVPSRFSGSGSGTDFTLTITTLQPEDFATYYCQQSYSAPPWTFAQGTKVEIK
Consider B1, for which the binding result in assay [1] is recorded as “binds”.

B2: AZ090 IgG (antibody, V domains shown)
VH: QVQLVQSGPEVKKPGTSVKVSCKASQFTFSISAVQWVRQARGQRLEWMGWIVVGSGNTDYAQRFQERVTISRDMSAGTVYMELRSLRSEDTAVYYCAAPYCNKTNCRDGFDMWGQGTMVTVSS
VL: EIVLTQSPGTLSLSPGERATLSCRASQSVSSSYLAWYQQKPGQAPRLLIYGASRRATGIPDRFSGSASGTDFILTISRLEPEDFAVYYCQQYRNSPWTFGQGTKVEIK
B2: the binding result in assay [2] is “binds”.

B3: C105 (antibody, V domains shown)
VH: QVQLVESGGGLIQPGGSLRLSCAASGFTVSSNYMSWVRQAPGKGLEWVSVIYSGGSTYYADSVKGRFTISRDNSKNTLYLQMNSLRAEDTAVYYCARGEGWELPYDYWGQGTLVTVSS
VL: QSALTQPPSASGSPGQSVTISCTGTSSDVGGYKYVSWYQQHPGKAPKLMIYEVSKRPSGVPDRFSGSKSGNTASLTVSGLQAEDEADYYCSSYEGSNNFVVFGGGTKLTVL
For B3, in assay [2], the binding result is reported as “binds”.
